Experimental data as given in patent US20260167959A1, “APTAZYME-BASED REGULATABLE GENE EXPRESSION SYSTEMS” (REJUVENATE BIO INC, priority 2022, published 2026).
Residue numbers refer to the chain shown, from its start.

B1: RA142 (nucleic acid)
DNA: GCGCGTCCTGGATTCGCGGAAACGCGTACGGAATACCAGCATCGTCTTGATGCCCTTGGAAGTCCATCCAGCTGACGAGTCCCAAATAGGACGAAACGCGC
modifications: expressed or natural sequence
B2: RA143 (nucleic acid)
DNA: GCGCGTCCTGGATTCGCGGAAACGCGTACATCCAGCTGACGAGTGATACCAGCATCGTCTTGATGCCCTTGGCAGCACTAGTCCCAAATAGGACGAAACGCGC
modifications: expressed or natural sequence
B3: RA144 (nucleic acid)
DNA: GCGCGCGAGAATACCAGCATCGTCTTGATGCCCTTGGAAGTCTCGTCCTGGATTCGCGGAAACGCGTACATCCAGCTGACGAGTCCCAAATAGGACGAAACGCGC
modifications: expressed or natural sequence
B4: RA145 (nucleic acid)
DNA: GCGCGGAATACCAGCATCGTCTTGATGCCCTTGGAAGTCCGTCCTGGATTCGCGGAAACGCGTACATCCAGCTGACGAGTCCCAAATAGGACGAAACGCGC
modifications: expressed or natural sequence
B5: RA146 (nucleic acid)
DNA: GCGCGTCCTGGATTCGCGGAAACGCGTACATCCAGCTGACGAGTCCCAAATAGGAATACCAGCATCGTCTTGATGCCCTTGGAAGTCCGGACGAAACGCGC
modifications: expressed or natural sequence
B6: RA147 (nucleic acid)
DNA: GCGCGTCCTGGATTCGCGGAAACGCGTACATCCAGCTGACGAGTAGAATACCAGCATCGTCTTGATGCCCTTGGAAGTCTCCCAAATAGGACGAAACGCGC
modifications: expressed or natural sequence
B7: RA014 (nucleic acid)
DNA: GCGCGTCCTGGATTCGCGGAAACGCGTACATCCAGCTGACGAGTCCCAAATAGGACGAAACGGAATACCAGCATCGTCTTGATGCCCTTGGAAGTCCGCGC
modifications: expressed or natural sequence
B8: RA148 (nucleic acid)
DNA: GCGCGTCCTGGATTCGCGGAAACGCGTACATCCAGCTGACGAGAGAATACCAGCATCGTCTTGATGCCCTTGGAAGTCTTCCCAAATAGGACGAAACGCGC
modifications: expressed or natural sequence
B9: RA149 (nucleic acid)
DNA: GCGCGGAGAATACCAGCATCGTCTTGATGCCCTTGGAAGTCTCTCCTGGATTCGCGGAAACGCGTACATCCAGCTGACGAGTCCCAAATAGGACGAAACGCGC
modifications: expressed or natural sequence
B10: RA150 (nucleic acid)
DNA: GCGCGTCCTGGATTCGCGGAAACGCGTACATCCAGCTGACGAGTCCCAAATAGGACGAAAGGAATACCAGCATCGTCTTGATGCCCTTGGAAGTCCCGCGC
modifications: expressed or natural sequence
B11: RA151 (nucleic acid)
DNA: GCGCGTCCTGGATTCGCGGAAACGCGTACCGGAATACCAGCATCGTCTTGATGCCCTTGGAAGTCCGGCATCCAGCTGACGAGTCCCAAATAGGACGAAACGCGC
modifications: expressed or natural sequence
B12: RA152 (nucleic acid)
DNA: GCGCGTGGAATACCAGCATCGTCTTGATGCCCTTGGAAGTCCCCTGGATTCGCGGAAACGCGTACATCCAGCTGACGAGTCCCAAATAGGACGAAACGCGC
modifications: expressed or natural sequence
B13: RA153 (nucleic acid)
DNA: CGAGAATACCAGCATCGTCTTGATGCCCTTGGAAGTCTCGGCGCGTCCTGGATTCGCGGAAACGCGTACATCCAGCTGACGAGTCCCAAATAGGACGAAACGCGC
modifications: expressed or natural sequence
B14: RA154 (nucleic acid)
DNA: GCGCGTCCTGGATTCGCGGAAACGCGAGAATACCAGCATCGTCTTGATGCCCTTGGAAGTCTCGTACATCCAGCTGACGAGTCCCAAATAGGACGAAACGCGC
modifications: expressed or natural sequence
B15: RA155 (nucleic acid)
DNA: GCGCGTCCTGGATTCGCGGAAACGCGTACATCCAGCTGACGAGTCCCAAATAGGACGAGAATACCAGCATCGTCTTGATGCCCTTGGAAGTCTCGCGAAACGCGC
modifications: expressed or natural sequence
B16: RA156 (nucleic acid)
DNA: GCCGGAATACCAGCATCGTCTTGATGCCCTTGGAAGTCCGGCGCGTCCTGGATTCGCGGAAACGCGTACATCCAGCTGACGAGTCCCAAATAGGACGAAACGCGC
modifications: expressed or natural sequence
B17: RA157 (nucleic acid)
DNA: GCGCGTCCTGGATTCGCGGAAACGCGTAAGAATACCAGCATCGTCTTGATGCCCTTGGAAGTCTCATCCAGCTGACGAGTCCCAAATAGGACGAAACGCGC
modifications: expressed or natural sequence
B18: RA015 (nucleic acid)
DNA: GCGCGTCCTGGATTCGCGGCGGAATACCAGCATCGTCTTGATGCCCTTGGAAGTCCGAAACGCGTACATCCAGCTGACGAGTCCCAAATAGGACGAAACGCGC
modifications: expressed or natural sequence
B19: RA158 (nucleic acid)
DNA: GCGCGTCCTGGATTCGCGGAAACGCGTACATCCAGCTGACGAGTCCCAAATAGGACGAGTGATACCAGCATCGTCTTGATGCCCTTGGCAGCACTAAACGCGC
modifications: expressed or natural sequence
B20: RA159 (nucleic acid)
DNA: GCGCGTCCTGGATTCGCGGAATACCAGCATCGTCTTGATGCCCTTGGAAGTCCGCGGAAACGCGTACATCCAGCTGACGAGTCCCAAATAGGACGAAACGCGC
modifications: expressed or natural sequence
B21: RA160 (nucleic acid)
DNA: B8 DNA with A44G, T79C
modifications: expressed or natural sequence

Tested on: Renilla luciferase RNA
Experiment: Barcoded aptazyme variant library screen: un-cleaved Renilla luciferase RNA by barcode read counts, HEK293-T cells
Type: cell-based
Conditions: un-cleaved Renilla luciferase RNA, HEK293-T cells cultured with 1 mM theophylline (ON) over without theophylline (OFF); barcode read counts, triplicate
In short: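 Barcode sequencing of cDNA versus DNA, normalized per aptazyme, gave the un-cleaved Renilla luciferase RNA fraction and fold-change with versus without theophylline (triplicates). Library: T3H48 ribozyme with one of seven theophylline aptamer variants inserted at each position, placed in the Renilla 3′ UTR of a dual-luciferase vector.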

Row | Molecule | Fold change in RNA expression between the ON state and the OFF state [fold]
1 | B1 | 1.4
2 | B2 | 1.4
3 | B3 | 1.4
4 | B4 | 1.4
5 | B5 | 1.4
6 | B6 | 1.4
7 | B7 | 3.1
8 | B8 | 1.4
9 | B9 | 1.4
10 | B10 | 1.4
11 | B11 | 1.4
12 | B12 | 1.4
13 | B13 | 1.3
14 | B14 | 1.3
15 | B15 | 1.3
16 | B16 | 1.3
17 | B17 | 1.3
18 | B18 | 3.0
19 | B19 | 1.3
20 | B20 | 1.3
21 | B21 | 1.3
